Source: US20040018971A1 (published 2004)

Key:
[1] = biological target: T1, HLA-A*0201 (human); assay: competition for purified HLA vs 125I-labelled probe peptide, gel filtration
T1 construct: also called HLA-A2.1

[2] = biological target: T2, HLA-A*0203 (human); assay: as above
T2 construct: purified HLA class I molecule

[3] = biological target: T3, HLA-A*0206 (human); assay: as above
T3 construct: purified HLA class I molecule

[4] = biological target: T4, HLA-A*0202 (human); assay: as above
T4 construct: purified HLA class I molecule

[5] = biological target: T5, HLA-A*6802 (human); assay: as above
T5 construct: purified HLA class I molecule

[6] = biological target: T6, HLA-DRB1*0101 (human); assay: competition with 125I probe peptide, purified HLA
T6 construct: also called DR1

[7] = biological target: T7, HLA-DRB1*0701 (human); assay: competition with 125I probe peptide, purified HLA
T7 construct: also called DR7

[8] = biological target: T8, HLA-DRB1*0401 (human); assay: competition with 125I probe peptide, purified HLA
T8 construct: also called DR4w4

[9] = biological target: T9, HLA-DRB1*0101 (human); assay: inhibition of 125I probe peptide binding to purified HLA-DR, gel filtration
T9 construct: Purified HLA molecule; also called DR1

[10] = biological target: T10, HLA-DRB5*0101 (human); assay: as above
T10 construct: Purified HLA molecule; also called DR2w2β2

[11] = biological target: T11, HLA-DRB1*1302 (human); assay: as above
T11 construct: Purified HLA molecule; also called DR6w19

[12] = biological target: T9, HLA-DRB1*0101; assay: as above; remark: listed apart in the source
[13] = biological target: T12, HLA-DRB1*0401 (human); assay: as above
T12 construct: Purified HLA molecule; also called DR4w4

[14] = biological target: T13, HLA-DRB1*0802 (human); assay: as above
T13 construct: Purified HLA molecule; also called DR8w2

[15] = biological target: T14, HLA-DRB1*1501 (human); assay: as above
T14 construct: Purified HLA molecule; also called DR2w2β1

[16] = biological target: T15, HLA-DRB1*0701 (human); assay: as above
T15 construct: Purified HLA molecule; also called DR7

[17] = biological target: T16, HLA-DRB1*0301 (human); assay: competition with 125I-labelled standard peptide, purified HLA-DR, gel filtration
T16 construct: purified MHC class II molecule; also called DR3

[18] = biological target: T17, HLA-DRB5*0101 (human); assay: as above
T17 construct: purified MHC class II molecule; also called DR2w2β2

[19] = biological target: T18, HLA-A*0201 (human); assay: inhibition of 125I-labeled probe peptide binding to purified HLA, gel filtration; relative to standard peptide
T18 construct: the construct is not described; also called HLA-A2.1

In the case of VLIQRNPQV (analog of Her2/neu.153) [Her2/neu.153.V9], the IC50 [1] is reported as 55 nM, the IC50 [2] is reported as 135 nM and the IC50 [3] is reported as 385 nM. For the same binder, the IC50 [4] was 768 nM.

Work on KTFGSLAFV (analog of Her2/neu.369) [Her2/neu.369.T2V9] yielded an IC50 [1] of 35 nM, an IC50 [2] of 1010 nM and an IC50 [5] of 17 nM. It also gave an IC50 [4] of 13 nM.

SLISAVVGV (analog of Her2/neu.653) [Her2/neu.653.L2V9] showed an IC50 [1] of 7.1 nM, an IC50 [2] of 16 nM and an IC50 [5] of 110 nM. It also gave an IC50 [3] of 20 nM and an IC50 [4] of 10 nM.

With YLIMVKCWMV (analog of Her2/neu.952 (10-mer)) [Her2/neu.952.L2V10] the IC50 [1] was 13 nM, the IC50 [5] was 84 nM and the IC50 [3] was 18 nM. The IC50 [4] was 56 nM.

In the case of TQLFEDNYALAVLDN [Her2/neu.105], the IC50 [6] is reported as 94 nM and the IC50 [7] is reported as 1560 nM.

KEILDEAYVMAGVGS [Her2/neu.765] showed an IC50 [8] of 6160 nM.

Work on DEAYVMAGVGSPYVS yielded an IC50 [6] of 100 nM and an IC50 [8] of 196 nM.

With QPPICTIDVYMIMVK the IC50 [7] was 250 nM.

In the case of QGFFCPDPAPGAGGM [Her2/neu.1028], the IC50 [8] is reported as 1960 nM.

Binder QPDVRPQPPSPREGP (Synthetic peptide) [Her2/neu.1142] has an IC50 [9] of 7140 nM.

Work on DEAYVMAGVGSPYVS (Synthetic peptide) yielded an IC50 [10] of 833 nM, an IC50 [11] of 1750 nM and an IC50 [12] of 100 nM. For the same binder, the IC50 [13] was 196 nM, the IC50 [14] was 860 nM and the IC50 [15] was 3140 nM.

With KVPIKWMALESILRR (Synthetic peptide) [Her2/neu.883] the IC50 [12] was 2.3 nM and the IC50 [15] was 3.4 nM.

Work on QPPICTIDVYMIMVK (Synthetic peptide) yielded an IC50 [16] of 250 nM.

With SLSFLQDIQEVQGYV [Her2/neu.70] the IC50 [17] was 5770 nM.

YRSLLEDDDMGDLVD [Her2/neu.1005] showed an IC50 [17] of 4760 nM.

QMRILKETELRKVKV [Her2/neu.711] was tested, and the IC50 [18] was 34 nM.

YVLIAHNQV (Synthetic peptide) [HER2/neu peptide, position 83, 9 amino acids] was tested, and the relative binding ratio [19] was 0.0005 ratio (IC50 of standard peptide / IC50 of test peptide).

YVSRLLGICL (Synthetic peptide) [HER2/neu peptide, position 781, 10 amino acids] was tested, and the relative binding ratio [19] was 0.0004 ratio (IC50 of standard peptide / IC50 of test peptide).
